Measured values published in patent publication US5319071, “Soluble interleukin-1 receptors” (Immunex Corporation, dated 1994).
One block for each molecule: values may come before it.

Experiments:
[1] = target: native murine IL-1 receptor of EL-4 6.1 C10 cells (murine)
[2] = target: T1, recombinant human IL-1α (polypeptide composed of the C-terminal 157 residues of IL-1α, Mr 17,500 form) (human, UniProt P01583, 125I label (chloramine-T method, ca 1 atom of iodine per IL-1α molecule) where used as tracer; fluorescein isothiocyanate conjugate in flow cytometry; unlabeled as competitor; coupled to Sepharose 4B …); assay: direct binding of 125I-IL-1α to COS cells transfected with clone 78, Scatchard analysis
T1 sequence: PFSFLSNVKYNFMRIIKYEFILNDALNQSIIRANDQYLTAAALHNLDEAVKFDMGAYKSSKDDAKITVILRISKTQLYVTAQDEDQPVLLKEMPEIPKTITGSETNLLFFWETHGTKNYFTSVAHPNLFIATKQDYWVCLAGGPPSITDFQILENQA

[3] = target: T1, recombinant human IL-1α (polypeptide …); assay: direct binding of 125I-IL-1α to EL-4 6.1 C10 cells, Scatchard analysis
[4] = target: T1, recombinant human IL-1α (polypeptide …); assay: receptor in Triton X-100 solution (diluted extract) inhibiting 125I-IL-1α binding to extract on nitrocellulose; competitive inhibition model

IL-2 production from EL-4 6.1 C10 cells [1]: 100%
Molecule: recombinant human IL-1α (polypeptide composed of the C-terminal 157 residues of IL-1α, Mr 17,500 form) (from UniProt P01583) (ligand)

Ka [2]: 3e+09 M⁻¹
B1: recombinant murine IL-1 receptor (clone 78 in pDC201) expressed on COS cells (receptor)
chain: LEIDVCTEYPNQIVLFLSVNEIDIRKCPLTPNKMHGDTIIWYKNDSKTPISADRDSRIHQQNEHLWFVPAKVEDSGYYYCIVRNSTYCLKTKVTVTVLENDPGLCYSTQATFPQRLHIAGDGSLVCPYVSYFKDENNELPEVQWYKNCKPLLLDNVSFFGVKDKLLVRNVAEEHRGDYICRMSYTFRGKQYPVTRVIQFITIDENKRDRPVILSPRNETIEADPGSMIQLICNVTGQFSDLVYWKWNGSEIEWNDPFLAEDYQFVEHPSTKRKYTLITTLNISEVKSQFYRYPFICVVKNTNIFESAHVQLIYPVPDFKNYLIGGFIILTATIVCCVCIYKVFKVDIVLWYRDSCSGFLPSKASDGKTYDAYILYPKTLGEGSFSDLDTFVFKLLPEVLEGQFGYKLFIYGRDDYVGEDTIEVTNENVKKSRRLIIILVRDMGGFSWLGQSSEEQIAIYNALIQEGIKIVLLELEKIQDYEKMPDSIQFIKQKHGVICWSGDFQERPQSAKTRFWKNLRYQMPAQRRSPLSKHRLLTLDPVRDTKEKLPAATHLPLG

Ka [3]: 4.3e+09 M⁻¹
Ka [4]: 4.5e+09 M⁻¹
B2: native murine IL-1 receptor of EL-4 6.1 C10 cells (receptor)
chain: LEIDVCTEYPNQIVLFLSVNEIDIRKCPLTPNKMHGDTIIWYKNDSKTPISADRDSRIHQQNEHLWFVPAKVEDSGYYYCIVRNSTYCLKTKVTVTVLENDPGLCYSTQATFPQRLHIAGDGSLVCPYVSYFKDENNELPEVQWYKNCKPLLLDNVSFFGVKDKLLVRNVAEEHRGDYICRMSYTFRGKQYPVTRVIQFITIDENKRDRPVILSPRNETIEADPGSMIQLICNVTGQFSDLVYWKWNGSEIEWNDPFLAEDYQFVEHPSTKRKYTLITTLNISEVKSQFYRYPFICVVKNTNIFESAHVQLIYPVPDFKNYLIGGFIILTATIVCCVCIYKVFKVDIVLWYRDSCSGFLPSKASDGKTYDAYILYPKTLGEGSFSDLDTFVFKLLPEVLEGQFGYKLFIYGRDDYVGEDTIEVTNENVKKSRRLIIILVRDMGGFSWLGQSSEEQIAIYNALIQEGIKIVLLELEKIQDYEKMPDSIQFIKQKHGVICWSGDFQERPQSAKTRFWKNLRYQMPAQRRSPLSKHRLLTLDPVRDTKEKLPAATHLPLG
modifications: glycoprotein (N-linked carbohydrate), Mr 82,000
